Source: patent publication US20050147555A1 (BRACCO SUISSE, published 2005)
One block for each binder: values may come before it. Positions of bridges follow the written chain, without caps; N, C: chain ends. Groups on a side chain read outwards from the residue. Primed or numbered codes have the meaning given here. Chains are numbered I, II in the order given. No end group written: not given here. *: point of attachment. ivDde′ = 1-(4,4-dimethyl-2,6-dioxocyclohex-1-ylidene)-3-methylbutyl, CC(C)CC(=C1C(=O)CC(C)(C)CC1=O)*; Biotin = O=C1N[C@H]2[C@H](CS[C@H]2CCCCC(=O)*)N1; AEEA = NCCOCCOCC(=O)O

Columns and labels:
[1] = biological target: T1, KDR (VEGFR-2, Flk-1), full-length receptor on cells (human, UniProt P35968 20-1356); assay: competition with 125I-labeled VEGF for binding to KDR-transfected 293H cells, % inhibition of specific binding
T1 construct: whole, on cells; endogenous on HUVECs in the functional assays; also called VEGF receptor 2
T1 sequence (P35968 20-1356): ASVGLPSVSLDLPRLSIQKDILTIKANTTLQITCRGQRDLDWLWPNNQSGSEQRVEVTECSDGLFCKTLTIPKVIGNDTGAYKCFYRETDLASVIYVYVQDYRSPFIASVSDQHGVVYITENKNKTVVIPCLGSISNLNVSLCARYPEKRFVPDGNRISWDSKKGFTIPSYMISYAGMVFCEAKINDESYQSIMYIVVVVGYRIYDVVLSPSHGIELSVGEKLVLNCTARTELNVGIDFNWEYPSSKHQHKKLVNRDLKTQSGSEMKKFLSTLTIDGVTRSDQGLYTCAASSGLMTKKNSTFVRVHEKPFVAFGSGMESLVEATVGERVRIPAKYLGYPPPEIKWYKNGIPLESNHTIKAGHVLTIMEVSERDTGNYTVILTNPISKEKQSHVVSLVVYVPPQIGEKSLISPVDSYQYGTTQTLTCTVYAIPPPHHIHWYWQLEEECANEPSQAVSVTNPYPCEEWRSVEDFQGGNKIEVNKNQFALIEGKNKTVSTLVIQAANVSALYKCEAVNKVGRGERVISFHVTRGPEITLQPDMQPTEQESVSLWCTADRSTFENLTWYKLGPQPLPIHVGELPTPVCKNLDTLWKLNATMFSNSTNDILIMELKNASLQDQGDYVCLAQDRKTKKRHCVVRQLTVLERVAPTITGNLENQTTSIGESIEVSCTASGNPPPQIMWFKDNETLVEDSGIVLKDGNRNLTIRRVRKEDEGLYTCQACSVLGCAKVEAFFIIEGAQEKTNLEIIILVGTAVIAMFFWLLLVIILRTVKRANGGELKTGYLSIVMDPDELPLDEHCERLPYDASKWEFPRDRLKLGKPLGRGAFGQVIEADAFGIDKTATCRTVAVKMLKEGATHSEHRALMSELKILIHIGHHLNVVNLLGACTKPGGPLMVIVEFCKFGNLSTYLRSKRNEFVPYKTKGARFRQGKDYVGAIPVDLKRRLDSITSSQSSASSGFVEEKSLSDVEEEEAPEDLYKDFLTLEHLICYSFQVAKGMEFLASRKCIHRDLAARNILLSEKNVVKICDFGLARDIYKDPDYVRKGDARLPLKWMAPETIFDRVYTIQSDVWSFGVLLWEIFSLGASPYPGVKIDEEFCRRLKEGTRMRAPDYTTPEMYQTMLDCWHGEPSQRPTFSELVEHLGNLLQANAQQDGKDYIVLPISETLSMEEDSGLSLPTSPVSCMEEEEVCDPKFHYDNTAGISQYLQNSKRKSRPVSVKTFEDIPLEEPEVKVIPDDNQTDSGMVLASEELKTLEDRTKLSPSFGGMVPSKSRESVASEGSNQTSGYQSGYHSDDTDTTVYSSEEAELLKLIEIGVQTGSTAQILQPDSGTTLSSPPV
Excerpt: (§1) After washing the cells, the bound radioactivity was quantitated on a gamma counter.

[2] = biological target: T1, KDR (VEGFR-2, Flk-1), full-length …; assay: cell-based or functional assay
[3] = biological target: T1, KDR (VEGFR-2, Flk-1), full-length …; assay: P13-conjugated microbubbles on KDR-transfected 293H cells in the presence of rising free dimer (f5), % binding
Description: (§2) At the end of the incubation, the transfected cells were rinsed three times in PBS and examined under a microscope. Binding of the conjugated bubbles was quantified and expressed as a percentage of the surface covered by the targeted microbubbles.

[4] = biological target: T1, KDR (VEGFR-2, Flk-1), full-length …; assay: competition with 125I-VEGF on KDR-transfected 293H cells
Description: Cells were used 24 h after transfection, and to prepare the cells for the assay, they were washed 3 times with room temperature M199 medium and placed in the refrigerator. […] Each dilution was added to three separate wells of mock and KDR transfected cells. After incubating at 4° C. for 2 h, the plates were washed 5 times with cold binding buffer, gently blotted dry and checked under a microscope for cell loss. 100 μL of solubilizing solution (2% Triton X-100, 10% Glycerol, 0.1% BSA) was added to each well and the plates were incubated at room temperature for 30 minutes. The solubilizing solution in each well was mixed by pipeting up and down, and transferred to 1.2 mL tubes. Each well was washed twice with 100 μL of solubilizing solution and the washes were added to the corresponding 1.2 mL tube.

[5] = biological target: T1, KDR (VEGFR-2, Flk-1), full-length …; assay: competition with 125I-VEGF for specific binding to KDR-transfected 293H cells, % inhibition
Excerpt: as §1

[6] = biological target: T2, murine KDR-Fc (recombinant, R&D Systems #443-KD-050) (murine, UniProt P35918 20-762); assay: SPR (BIAcore), murine KDR-Fc 5000 RU; KD1 = kd1/ka1
T2 construct: Bought; also called rmKDR-Fc; recombinant murine KDR-Fc; not shown: Ig Fc region of the bought chimera
T2 sequence (P35918 20-762): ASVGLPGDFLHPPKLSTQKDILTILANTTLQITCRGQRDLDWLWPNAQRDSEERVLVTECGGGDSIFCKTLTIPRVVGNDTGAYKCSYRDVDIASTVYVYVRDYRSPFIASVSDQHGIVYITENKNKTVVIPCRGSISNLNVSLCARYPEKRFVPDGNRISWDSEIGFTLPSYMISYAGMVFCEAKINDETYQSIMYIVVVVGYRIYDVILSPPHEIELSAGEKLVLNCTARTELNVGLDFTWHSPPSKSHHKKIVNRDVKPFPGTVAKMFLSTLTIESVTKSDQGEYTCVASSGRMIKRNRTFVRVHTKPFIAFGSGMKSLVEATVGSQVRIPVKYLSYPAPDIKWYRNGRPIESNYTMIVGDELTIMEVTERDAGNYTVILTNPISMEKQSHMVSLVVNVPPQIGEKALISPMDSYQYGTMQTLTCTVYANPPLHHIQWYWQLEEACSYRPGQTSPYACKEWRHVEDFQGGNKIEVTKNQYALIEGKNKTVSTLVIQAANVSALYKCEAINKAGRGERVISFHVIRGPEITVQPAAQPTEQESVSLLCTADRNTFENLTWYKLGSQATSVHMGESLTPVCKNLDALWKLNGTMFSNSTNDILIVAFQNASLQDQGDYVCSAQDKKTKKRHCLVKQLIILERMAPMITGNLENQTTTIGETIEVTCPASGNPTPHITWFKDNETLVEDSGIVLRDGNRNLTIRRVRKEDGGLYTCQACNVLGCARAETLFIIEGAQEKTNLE

[7] = biological target: T2, murine KDR-Fc (recombinant, R&D Systems …); assay: SPR (BIAcore), murine KDR-Fc 2700 RU; KD1 = kd1/ka1
Description: All samples were injected in duplicate. For association, peptides were injected at 30 μL/min for 3 minutes using the kinject program. Following a 10 minute dissociation, any remaining peptide was stripped from the rmKDR-Fc surface with a quickinject of 50 mM NaOH+1M NaCl for 12s at 75 μL/min.
Sensorgrams were analyzed using the simultaneous ka/kd fitting program in the BIAevaluation software 3.1.

[8] = biological target: T1, KDR (VEGFR-2, Flk-1), full-length …; assay: binding of the 125I-labeled dimer to KDR- and mock-transfected 293H cells with and without 40% mouse serum, CPM bound
Description: Binding was performed with and without 40% mouse serum to evaluate the serum effect on binding to KDR-transfected cells. After washing away the unbound compound, the cells in each well were lysed with 0.5 N NaOH and the lysates were counted with a gamma counter.

[9] = biological target: T1, KDR (VEGFR-2, Flk-1), full-length …; assay: binding of the 99mTc-labeled scrambled dimer (D18 by legend paragraph 74; name box empty) to KDR- and mock-transfected 293H cells with and without 40% mouse serum, bound CPM
Description: Cells were used 24 h after transfection, and to prepare the cells for the assay, they were washed 1× with 100 μL of room temperature opti-MEMI with 0.1% HSA. […] Each dilution was added to three separate wells of mock and KDR-transfected cells. After incubating at room temperature for 1 h, the plates were washed 5 times with 100 μL of cold binding buffer (opti-MEMI with 0.1% HSA). 100 μL of solubilizing solution (0.5 N NaOH) was added to each well, and the plates were incubated at 37° C. for 10 minutes. The solubilizing solution in each well was mixed by pipeting up and down, and transferred to 1.2 mL tubes. Each well was washed once with 100 μL of solubilizing solution and the washes were added to the corresponding 1.2 mL tube.

[10] = biological target: T1, KDR (VEGFR-2, Flk-1), full-length …; assay: competition: corresponding free peptide against P12-conjugated microbubbles on KDR-transfected 293H cells, % binding (surface covered, relative)
Description: (§3) The transfected cells were incubated with a suspension of peptide-conjugated microbubbles in presence or absence of the corresponding free peptide (between 100 μM to 3 nM). Competition was also performed using a non-binding control peptide as a competing compound. At the end of the incubation, the transfected cells were rinsed three times in PBS and examined under a microscope. Binding of the conjugated bubbles was quantified and expressed as a percent of the surface covered by the targeted microbubbles.

[11] = biological target: T3, KDR-Fc (chimeric fusion of Ig Fc region with human KDR, R&D Systems #357-KD-050) (human, UniProt P35968 20-764); assay: fluorescence polarisation against KDR-Fc
T3 construct: Bought; also called KDR Fc fusion; not shown: Ig Fc region of the bought chimera
T3 sequence (P35968 20-764, stated change not applied): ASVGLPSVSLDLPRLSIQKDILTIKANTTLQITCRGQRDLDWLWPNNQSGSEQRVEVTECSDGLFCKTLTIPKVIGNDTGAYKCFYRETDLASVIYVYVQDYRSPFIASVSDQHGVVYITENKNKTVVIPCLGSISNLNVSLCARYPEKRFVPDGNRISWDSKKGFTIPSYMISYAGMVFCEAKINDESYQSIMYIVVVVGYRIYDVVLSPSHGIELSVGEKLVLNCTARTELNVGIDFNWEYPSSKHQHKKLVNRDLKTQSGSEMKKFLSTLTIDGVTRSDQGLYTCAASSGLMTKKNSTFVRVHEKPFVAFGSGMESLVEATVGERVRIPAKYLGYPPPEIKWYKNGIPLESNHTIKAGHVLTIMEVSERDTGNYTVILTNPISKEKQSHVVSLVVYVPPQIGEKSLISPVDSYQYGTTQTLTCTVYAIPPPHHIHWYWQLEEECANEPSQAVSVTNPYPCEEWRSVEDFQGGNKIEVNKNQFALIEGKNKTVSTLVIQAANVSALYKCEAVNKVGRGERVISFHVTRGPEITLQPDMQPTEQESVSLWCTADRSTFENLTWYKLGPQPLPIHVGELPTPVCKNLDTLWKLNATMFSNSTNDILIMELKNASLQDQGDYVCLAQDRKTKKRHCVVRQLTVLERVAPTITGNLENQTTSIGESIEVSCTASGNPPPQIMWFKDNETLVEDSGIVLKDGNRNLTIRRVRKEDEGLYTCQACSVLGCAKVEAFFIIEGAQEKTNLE

[12] = biological target: T1, KDR (VEGFR-2, Flk-1), full-length …; assay: competition: corresponding free peptide against D23-conjugated microbubbles on KDR-transfected 293H cells, % binding (surface covered, relative)
Description: as §3

[13] = biological target: T1, KDR (VEGFR-2, Flk-1), full-length …; assay: competition: free dimer against P13-conjugated microbubbles on KDR-transfected 293H cells, % binding
Description: as §2

[14] = biological target: T1, KDR (VEGFR-2, Flk-1), full-length …; assay: displacement of P12-XB/streptavidin-HRP complex (5.5 nM) from KDR-expressing cells
Description: After determining the specific binding under each experimental condition, the IC₅₀ for each peptide was determined (where possible).

Binder: Ac-AQAFPRFGGDDYWIQQYLRYTDGGK-NH2 [P10-D]
- VEGF-induced KDR phosphorylation in HUVECs (immunoblot) [2]: ≥ 50 % inhibition at 10 µM

Binder: Ac-GDWWECK(ivDde′)REEYRNTTWCAWADPGGGK-NH2 (disulfide 6-17 (inferred)) [P7-E]
- VEGF-induced KDR phosphorylation in HUVECs (immunoblot) [2]: ≥ 50 % inhibition at 10 µM

Binder: Ac-GDPDTCTMWGDSGRWYCFPADPGGGK-NH2 (disulfide 6-17 (inferred)) [P8-D]
- VEGF-induced KDR phosphorylation in HUVECs (immunoblot) [2]: ≥ 50 % inhibition at 10 µM

Binder: Ac-AQEPEGYAYWEVITLYHEEDGDGGK-NH2 [P9-D]
- VEGF-induced KDR phosphorylation in HUVECs (immunoblot) [2]: ≥ 50 % inhibition at 10 µM

B2: D17 (peptide)
peptide 1: AQDWYYDEILGRGGRGGRGGK
peptide 2: VCWEDSWGGEVCFRYDPGGGK
modifications: not fully specified; N-acetyl; C2-C12 disulfide; C-terminal amide; Lys21 side chain joined to JJ-glutaryl linker; N-acetyl; J (8-amino-3,6-dioxaoctanoyl) between Leu10 and the next Gly; C-terminal Lys side chain bears the branching Lys; C-terminal amide
- IC50, VEGF-induced migration of HUVECs [2]: ~250 nM

Binder: Ac-AGWLECYAEFGHCYNFGTGGGK-NH2 (disulfide 6-13 (inferred)) [P3-D]
- VEGF-induced KDR phosphorylation in HUVECs (immunoblot) [2]: ≥ 50 % inhibition at 10 µM

B3: P12-XB (peptide)
peptide: Ac-AGPTWCEDDWYYCWLFGTGGGK([AEEA-AEEA-Biotin])-NH2
modifications: disulfide 6-13
SMILES: CC(=O)N[C@@H](C)C(=O)NCC(=O)N1CCC[C@H]1C(=O)N[C@H](C(=O)N[C@@H](Cc1c[nH]c2ccccc12)C(=O)N[C@H]1CSSC[C@@H](C(=O)N[C@@H](Cc2c[nH]c3ccccc23)C(=O)N[C@@H](CC(C)C)C(=O)N[C@@H](Cc2ccccc2)C(=O)NCC(=O)N[C@H](C(=O)NCC(=O)NCC(=O)NCC(=O)N[C@@H](CCCCNC(=O)COCCOCCNC(=O)COCCOCCNC(=O)CCCC[C@@H]2SC[C@@H]3NC(=O)N[C@@H]32)C(N)=O)[C@@H](C)O)NC(=O)[C@H](Cc2ccc(O)cc2)NC(=O)[C@H](Cc2ccc(O)cc2)NC(=O)[C@H](Cc2c[nH]c3ccccc23)NC(=O)[C@H](CC(=O)O)NC(=O)[C@H](CC(=O)O)NC(=O)[C@H](CCC(=O)O)NC1=O)[C@@H](C)O
notes: Free monomeric peptide
- IC50, VEGF-induced KDR phosphorylation in HUVECs [2]: 100 nM
- % inhibition of 125I-VEGF binding at 0.3 µM [4]: 81%
- % inhibition of 125I-VEGF binding at 30 µM [4]: 104%

Binder: Ac-AGPTWCEDDWYYCWLFGTGGGK-NH2 (disulfide 6-13; also: fluorescein label (site not given here)) [Fluorescein labeled P12-G]
- Kd [6]: 33.6 nM
- Kd [7]: 36.4 nM

Binder: Ac-GDSRVCWEDSWGGEVCFRYDPGGGK-NH2 (disulfide 6-16 (inferred)) [P6-D]
- IC50, VEGF-induced KDR phosphorylation in HUVECs [2]: 1000 nM
- VEGF-induced KDR phosphorylation in HUVECs (immunoblot) [2]: ≥ 50 % inhibition at 10 µM

Binder: AGDSWCSTEYTYCEMIGT (disulfide 6-13; not fully specified) [P4]
- Kd [11]: > 2000 nM

B9: D23 (peptide)
P12-derived peptide: Ac-AGPTWCEDDWYYCWLFGTGGGK-NH2
truncated P6-derived peptide: Ac-VCWEDSWGGEVCFRYDPGGGK-NH2
modifications: disulfide I:6-I:13, II:2-II:12; not fully specified (bridges)
notes: Free, not on microbubbles (the list holds only the conjugate m37); The text says only 'corresponding free' dimeric peptide; also called free dimer
- IC50 (read off the curve) [12]: ~30 nM
- IC50 (read off the curve) [13]: ~20 nM

Binder: Ac-AQGDYVYWEIIELTGATDHTPPGGGK-NH2 [P11-D]
- VEGF-induced KDR phosphorylation in HUVECs (immunoblot) [2]: ≥ 50 % inhibition at 10 µM

B10: D1 (peptide)
peptide 1: AGPTWCEDDWYYCWLFGTGGGK
peptide 2: VCWEDSWGGEVCFRYDPGGGK
modifications: not fully specified; N-acetyl; C2-C12 disulfide; C-terminal Lys amide (printed as NH(CH2)4-(S)-CH(..NH)CONH2), side chain joined to linker; N-acetyl; C6-C13 disulfide; C-terminal amide; Lys22 side chain bears branch/linker
notes: J = 8-amino-3,6-dioxaoctanoyl; also called DI
- IC50 in the activation assay against that of D2 [2]: ≥ 100 fold lower than D2

B11: D24 (peptide)
peptide 1: AGPTWCEDDWYYCWLFGTGGGK
peptide 2: VCWEDSWGGEVCFRYDPGGGK
modifications: not fully specified; N-acetyl; C2-C12 disulfide; C-terminal amide; Lys21 side chain joined to JJ-glutaryl linker; N-acetyl; C6-C13 disulfide; C-terminal amide; Lys22 side chain bears SATA-JJ-Lys branch
- IC50, VEGF-induced migration of HUVECs [2]: 5 nM

Binder: Ac-AGWIECYHPDGICYHFGTGGGK-NH2 (disulfide 6-13 (inferred)) [P2-D]
- VEGF-induced KDR phosphorylation in HUVECs (immunoblot) [2]: ≥ 50 % inhibition at 10 µM

Binder: Ac-DWYYGGGK-NH2 [F1]
- IC50 [14]: 850 nM

Binder: GDSRVCWEDSWGGEVCFRYDP (disulfide 6-16 (inferred)) [P6]
- % inhibition of 125I-VEGF binding at 0.3 µM [4]: 52.3%
- % inhibition of 125I-VEGF binding at 30 µM [4]: 96.3%

Further lines, results first:

- binding result [1]: binds
B1: D2 (peptide)
peptide 1: AGPTWCEDDWYYCWLFGTGGGK
peptide 2: AGPTWCEDDWYYCWLFGTK
modifications: not fully specified; N-acetyl; C6-C13 disulfide; J (8-amino-3,6-dioxaoctanoyl) between Thr18 and the C-terminal Lys amide, whose side chain is joined to the linker; N-acetyl; C6-C13 disulfide; C-terminal amide; Lys22 side chain bears branch/linker

- binding result [3]: binds
Binder: AQDWYYDEILSMADQLRHAFLSGG (also: conjugated to microbubbles) [P13 conjugated to microbubbles]

- binding result [5]: binds
B4: PG-1 (peptide)
peptide: Ac-ERVTTCWPGEYGGVECYSVAY-NH2
modifications: not fully specified (bridges); printed as Ac-ERVTTCWPGEYGGVECYSVAY—NH2; cysteine pairing not given here

- binding result [1]: binds
B5: D3 (peptide)
peptide 1: VCWEDSWGGEVCFRYDPGGGK
peptide 2: VCWEDSWGGEVCFRYDPGGGK
modifications: not fully specified; N-acetyl; C2-C12 disulfide; C-terminal Lys amide, side chain joined to linker; N-acetyl; C2-C12 disulfide; C-terminal amide; Lys21 side chain bears Biotin-JJK branch and linker

- binding result [1]: binds
Binder: Ac-AQDWYYDEILSMADQLRHAFLSGG-NH2 [P13-D]

- binding result [8]: binds
B6: 125I-labeled D5 (peptide)
peptide 1: VCWEDSWGGEVCFRYDPGGGK
peptide 2: AGPTWCEDDWYYCWLFGTGGGK
modifications: not fully specified; N-acetyl; C6-C13 disulfide; C-terminal Lys amide, side chain carries the branching Lys; 125I Bolton-Hunter label on the free amine; N-acetyl; C2-C12 disulfide; C-terminal amide; Lys21 side chain joined to JJ-glutaryl linker

- binding result [9]: no binding (tested: 10.0 uCi/mL)
B7: 99mTc-labeled D18 (peptide)
peptide 1: Ac-APGTWCDYDWEYCWLGTFGGGK-NH2
peptide 2: Ac-GVDFRCEWSDWGEVGCRSPDYGGGK-NH2
modifications: disulfide I:6-I:13, II:6-II:16; not fully specified (some residues, bridges); printed as Ac-APGTWC*DYDWEYC*WLGTFGGGK{PnAO6-Glut-K[Ac-GVDFRC*EWSDWGEVGC*RSPDYGGGK(JJ-Glut)-NH2]}—NH2; also: 99mTc complex on PnAO6
notes: also called scrambled derivative of D10

- binding result [10]: binds
B8: P12 (peptide)
peptide: AGPTWCEDDWYYCWLFGT
modifications: disulfide 6-13
notes: the list holds only the microbubble conjugate m56 and other P12 derivatives
